# Reference: patent US20150344570A1 (published 2015)
# T1: FcγRIIa R (human, UniProt P12318 34-217)
# T1 construct: extracellular domain; also called FcgRIIa R type; 2aR
# T1 sequence (looked up): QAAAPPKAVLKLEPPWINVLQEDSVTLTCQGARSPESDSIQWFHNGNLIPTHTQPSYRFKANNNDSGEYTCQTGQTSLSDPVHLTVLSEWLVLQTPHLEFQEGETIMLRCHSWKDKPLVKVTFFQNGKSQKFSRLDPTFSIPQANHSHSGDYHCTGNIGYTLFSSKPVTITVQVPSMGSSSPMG
# Molecular target: T1, FcγRIIa R
# Experiment: SPR (Biacore), captured antibody, FcγR as analyte; relative binding activity
row,He/Con_2aR,Binder
1,126 % (GpH7-A5/GpH7-B3/GpL16-k0 = 100),"GpH7-A5/GpH7-B3 variant G237_04F/GpL16-k0 (antibody, human IgG1, kappa, also called He Ab G237_04F) heavy 1: not shown heavy 2: not shown light: DIVMTQSPLSLPVTPGEPASISCQASESLVHSNRNTYLHWYLQKPGQSPQLLIYKVSNRFSGVPDRFSGSGSGTDFTLKISRVEAEDVGVYYCSQNTHVPPTFGQGTKVEIERTVAAPSVFIFPPSDEQLKSGTASVVCLLNNFYPREAKVQWKVDNALQSGNSQESVTEQDSKDSTYSLSSTLTLSKADYEKHKVYACEVTHQGLSSPVTKSFNRGEC"
2,106 % (GpH7-A5/GpH7-B3/GpL16-k0 = 100),"GpH7-A5/GpH7-B3 variant H268_05P/GpL16-k0 (antibody, human IgG1, kappa, also called He Ab H268_05P) heavy 1: not shown heavy 2: not shown light: DIVMTQSPLSLPVTPGEPASISCQASESLVHSNRNTYLHWYLQKPGQSPQLLIYKVSNRFSGVPDRFSGSGSGTDFTLKISRVEAEDVGVYYCSQNTHVPPTFGQGTKVEIERTVAAPSVFIFPPSDEQLKSGTASVVCLLNNFYPREAKVQWKVDNALQSGNSQESVTEQDSKDSTYSLSSTLTLSKADYEKHKVYACEVTHQGLSSPVTKSFNRGEC"
3,133 % (GpH7-A5/GpH7-B3/GpL16-k0 = 100),"GpH7-A5/GpH7-B3 variant G237_06M/GpL16-k0 (antibody, human IgG1, kappa, also called He Ab G237_06M) heavy 1: not shown heavy 2: not shown light: DIVMTQSPLSLPVTPGEPASISCQASESLVHSNRNTYLHWYLQKPGQSPQLLIYKVSNRFSGVPDRFSGSGSGTDFTLKISRVEAEDVGVYYCSQNTHVPPTFGQGTKVEIERTVAAPSVFIFPPSDEQLKSGTASVVCLLNNFYPREAKVQWKVDNALQSGNSQESVTEQDSKDSTYSLSSTLTLSKADYEKHKVYACEVTHQGLSSPVTKSFNRGEC"
4,116 % (GpH7-A5/GpH7-B3/GpL16-k0 = 100),"GpH7-A5/GpH7-B3 variant G237_10E/GpL16-k0 (antibody, human IgG1, kappa, also called He Ab G237_10E) heavy 1: not shown heavy 2: not shown light: DIVMTQSPLSLPVTPGEPASISCQASESLVHSNRNTYLHWYLQKPGQSPQLLIYKVSNRFSGVPDRFSGSGSGTDFTLKISRVEAEDVGVYYCSQNTHVPPTFGQGTKVEIERTVAAPSVFIFPPSDEQLKSGTASVVCLLNNFYPREAKVQWKVDNALQSGNSQESVTEQDSKDSTYSLSSTLTLSKADYEKHKVYACEVTHQGLSSPVTKSFNRGEC"
5,129 % (GpH7-A5/GpH7-B3/GpL16-k0 = 100),"GpH7-A5/GpH7-B3 variant G237_15Y/GpL16-k0 (antibody, human IgG1, kappa, also called He Ab G237_15Y) heavy 1: not shown heavy 2: not shown light: DIVMTQSPLSLPVTPGEPASISCQASESLVHSNRNTYLHWYLQKPGQSPQLLIYKVSNRFSGVPDRFSGSGSGTDFTLKISRVEAEDVGVYYCSQNTHVPPTFGQGTKVEIERTVAAPSVFIFPPSDEQLKSGTASVVCLLNNFYPREAKVQWKVDNALQSGNSQESVTEQDSKDSTYSLSSTLTLSKADYEKHKVYACEVTHQGLSSPVTKSFNRGEC"
6,110 % (GpH7-A5/GpH7-B3/GpL16-k0 = 100),"GpH7-A5/GpH7-B3 variant H268_15Y/GpL16-k0 (antibody, human IgG1, kappa, also called He Ab H268_15Y) heavy 1: not shown heavy 2: not shown light: DIVMTQSPLSLPVTPGEPASISCQASESLVHSNRNTYLHWYLQKPGQSPQLLIYKVSNRFSGVPDRFSGSGSGTDFTLKISRVEAEDVGVYYCSQNTHVPPTFGQGTKVEIERTVAAPSVFIFPPSDEQLKSGTASVVCLLNNFYPREAKVQWKVDNALQSGNSQESVTEQDSKDSTYSLSSTLTLSKADYEKHKVYACEVTHQGLSSPVTKSFNRGEC"
7,150 % (GpH7-A5/GpH7-B3/GpL16-k0 = 100),"GpH7-A5/GpH7-B3 variant G237_18N/GpL16-k0 (antibody, human IgG1, kappa, also called He Ab G237_18N) heavy 1: not shown heavy 2: not shown light: DIVMTQSPLSLPVTPGEPASISCQASESLVHSNRNTYLHWYLQKPGQSPQLLIYKVSNRFSGVPDRFSGSGSGTDFTLKISRVEAEDVGVYYCSQNTHVPPTFGQGTKVEIERTVAAPSVFIFPPSDEQLKSGTASVVCLLNNFYPREAKVQWKVDNALQSGNSQESVTEQDSKDSTYSLSSTLTLSKADYEKHKVYACEVTHQGLSSPVTKSFNRGEC"
8,100 % (GpH7-A5/GpH7-B3/GpL16-k0 = 100),"GpH7-A5/GpH7-B3 variant H268_11K/GpL16-k0 (antibody, human IgG1, kappa, also called He Ab H268_11K) heavy 1: not shown heavy 2: not shown light: DIVMTQSPLSLPVTPGEPASISCQASESLVHSNRNTYLHWYLQKPGQSPQLLIYKVSNRFSGVPDRFSGSGSGTDFTLKISRVEAEDVGVYYCSQNTHVPPTFGQGTKVEIERTVAAPSVFIFPPSDEQLKSGTASVVCLLNNFYPREAKVQWKVDNALQSGNSQESVTEQDSKDSTYSLSSTLTLSKADYEKHKVYACEVTHQGLSSPVTKSFNRGEC"
9,138 % (GpH7-A5/GpH7-B3/GpL16-k0 = 100),"GpH7-A5/GpH7-B3 variant G237_20W/GpL16-k0 (antibody, human IgG1, kappa, also called He Ab G237_20W) heavy 1: not shown heavy 2: not shown light: DIVMTQSPLSLPVTPGEPASISCQASESLVHSNRNTYLHWYLQKPGQSPQLLIYKVSNRFSGVPDRFSGSGSGTDFTLKISRVEAEDVGVYYCSQNTHVPPTFGQGTKVEIERTVAAPSVFIFPPSDEQLKSGTASVVCLLNNFYPREAKVQWKVDNALQSGNSQESVTEQDSKDSTYSLSSTLTLSKADYEKHKVYACEVTHQGLSSPVTKSFNRGEC"
10,124 % (GpH7-A5/GpH7-B3/GpL16-k0 = 100),"GpH7-A5/GpH7-B3 variant H268_01G/GpL16-k0 (antibody, human IgG1, kappa, also called He Ab H268_01G) heavy 1: not shown heavy 2: not shown light: DIVMTQSPLSLPVTPGEPASISCQASESLVHSNRNTYLHWYLQKPGQSPQLLIYKVSNRFSGVPDRFSGSGSGTDFTLKISRVEAEDVGVYYCSQNTHVPPTFGQGTKVEIERTVAAPSVFIFPPSDEQLKSGTASVVCLLNNFYPREAKVQWKVDNALQSGNSQESVTEQDSKDSTYSLSSTLTLSKADYEKHKVYACEVTHQGLSSPVTKSFNRGEC"
11,121 % (GpH7-A5/GpH7-B3/GpL16-k0 = 100),"GpH7-A5/GpH7-B3 variant G237_13S/GpL16-k0 (antibody, human IgG1, kappa, also called He Ab G237_13S) heavy 1: not shown heavy 2: not shown light: DIVMTQSPLSLPVTPGEPASISCQASESLVHSNRNTYLHWYLQKPGQSPQLLIYKVSNRFSGVPDRFSGSGSGTDFTLKISRVEAEDVGVYYCSQNTHVPPTFGQGTKVEIERTVAAPSVFIFPPSDEQLKSGTASVVCLLNNFYPREAKVQWKVDNALQSGNSQESVTEQDSKDSTYSLSSTLTLSKADYEKHKVYACEVTHQGLSSPVTKSFNRGEC"
12,133 % (GpH7-A5/GpH7-B3/GpL16-k0 = 100),"GpH7-A5/GpH7-B3 variant G237_08L/GpL16-k0 (antibody, human IgG1, kappa, also called He Ab G237_08L) heavy 1: not shown heavy 2: not shown light: DIVMTQSPLSLPVTPGEPASISCQASESLVHSNRNTYLHWYLQKPGQSPQLLIYKVSNRFSGVPDRFSGSGSGTDFTLKISRVEAEDVGVYYCSQNTHVPPTFGQGTKVEIERTVAAPSVFIFPPSDEQLKSGTASVVCLLNNFYPREAKVQWKVDNALQSGNSQESVTEQDSKDSTYSLSSTLTLSKADYEKHKVYACEVTHQGLSSPVTKSFNRGEC"
13,121 % (GpH7-A5/GpH7-B3/GpL16-k0 = 100),"GpH7-A5/GpH7-B3 variant G237_19Q/GpL16-k0 (antibody, human IgG1, kappa, also called He Ab G237_19Q) heavy 1: not shown heavy 2: not shown light: DIVMTQSPLSLPVTPGEPASISCQASESLVHSNRNTYLHWYLQKPGQSPQLLIYKVSNRFSGVPDRFSGSGSGTDFTLKISRVEAEDVGVYYCSQNTHVPPTFGQGTKVEIERTVAAPSVFIFPPSDEQLKSGTASVVCLLNNFYPREAKVQWKVDNALQSGNSQESVTEQDSKDSTYSLSSTLTLSKADYEKHKVYACEVTHQGLSSPVTKSFNRGEC"
14,109 % (GpH7-A5/GpH7-B3/GpL16-k0 = 100),"GpH7-A5/GpH7-B3 variant H268_03V/GpL16-k0 (antibody, human IgG1, kappa, also called He Ab H268_03V) heavy 1: not shown heavy 2: not shown light: DIVMTQSPLSLPVTPGEPASISCQASESLVHSNRNTYLHWYLQKPGQSPQLLIYKVSNRFSGVPDRFSGSGSGTDFTLKISRVEAEDVGVYYCSQNTHVPPTFGQGTKVEIERTVAAPSVFIFPPSDEQLKSGTASVVCLLNNFYPREAKVQWKVDNALQSGNSQESVTEQDSKDSTYSLSSTLTLSKADYEKHKVYACEVTHQGLSSPVTKSFNRGEC"
15,156 % (GpH7-A5/GpH7-B3/GpL16-k0 = 100),"GpH7-A5/GpH7-B3 variant G237_09D/GpL16-k0 (antibody, human IgG1, kappa, also called He Ab G237_09D) heavy 1: not shown heavy 2: not shown light: DIVMTQSPLSLPVTPGEPASISCQASESLVHSNRNTYLHWYLQKPGQSPQLLIYKVSNRFSGVPDRFSGSGSGTDFTLKISRVEAEDVGVYYCSQNTHVPPTFGQGTKVEIERTVAAPSVFIFPPSDEQLKSGTASVVCLLNNFYPREAKVQWKVDNALQSGNSQESVTEQDSKDSTYSLSSTLTLSKADYEKHKVYACEVTHQGLSSPVTKSFNRGEC"
16,105 % (GpH7-A5/GpH7-B3/GpL16-k0 = 100),"GpH7-A5/GpH7-B3 variant H268_12R/GpL16-k0 (antibody, human IgG1, kappa, also called He Ab H268_12R) heavy 1: not shown heavy 2: not shown light: DIVMTQSPLSLPVTPGEPASISCQASESLVHSNRNTYLHWYLQKPGQSPQLLIYKVSNRFSGVPDRFSGSGSGTDFTLKISRVEAEDVGVYYCSQNTHVPPTFGQGTKVEIERTVAAPSVFIFPPSDEQLKSGTASVVCLLNNFYPREAKVQWKVDNALQSGNSQESVTEQDSKDSTYSLSSTLTLSKADYEKHKVYACEVTHQGLSSPVTKSFNRGEC"
